One series concerns Tumor specific T-cell. The series can be described thus: antigen re-presentation and T-cell activation measured by IFN-γ release. It counts as cell-based, murine. The protocol:
Re-presentation of antigenic peptides by hsps is another biological activity of significance. […] Immune response mediated by RAW264.7 APCs and CTLs specific to the peptide of the gp96 complex was measured by IFN-γ levels secreted by the CTLs. IFN-γ is a cytokine that is known in the art to be an indicator of general immune status; it also plays a major role in tumor recognition and rejection. […] A re-presentation assay is described in section 8, by way of example and not limitation.
The same samples were then analyzed for antigen re-presentation and T-cell activation as measured by IFN-γ expression.

A further series is described as follows: NECA ligand binding. The protocol:
Dimer content also correlates with the ability of gp96 to bind NECA. Using the gp96-peptide complex isolated from CT-26 tumors, aliquots of each preparation were also analyzed for NECA ligand binding.

Series [1] in a line: % dimer by size exclusion chromatography (SEC). It is filed as physicochemical. The protocol: Gp96-peptide complex was isolated from murine CT-26 tumors. Separate aliquots of each preparation were either maintained at 4° C. (untreated) or subjected to mild heat treatment to denature the complex.
HPLC size exclusion chromatography is currently being optimized and has been run under a few different formats. The column was either a TSK 3000SWXL (Toso Haus) or a Superose 6 (Amersham Pharmacia) equilibrated in 10 mM phosphate buffer, pH 7.1, with 300 mM NaCl. All experiments were run at room temperature on a Waters Alliance or HP 1100 HPLC systems at a flow rate of 0.5 mL/min. The following results for human tumor derived gp96 (reported in Table 3, below) were all analyzed on the Superose 6 column. % dimer values represent the area percent of the dimer peak relative to total peak area.
In general terms: In gel filtration, larger molecules generally elute earlier.

Series [2] concerns murine antigen presenting cells. The series can be described thus: nitric oxide (NO) secretion by antigen presenting cells. It counts as cell-based. The protocol:
(§1) Further experiments indiate that dimer content correlates with the ability of gp96 to stimulate chemokine/nitric oxide release by antigen presenting cells. Gp96 purified from the Meth-A murine fibrosarcoma tumors, subjected to both thermal and pH perturbations. This material was analyzed by SEC and NECA binding for its ability to induce murine antigen presenting cells to secrete MCP-1 and nitric oxide. […] NECA ligand binding and both MCP-1 and NO production decreased concomitantly with the loss of dimer. A similar trend was observed upon exposure of gp96 to pH 3, but not pH 7 or 9.

For series [3] the test system is unchanged. Nature of the series: MCP-1 secretion by antigen presenting cells. It is filed as cell-based. The procedure: as §1

“And” between values parts separate entries of the source, which are not always exact repeats. Equal entries are not always repeated.

B1: gp96-peptide complex isolated from CT-26 tumors: Gp96-peptide complex isolated from murine CT-26 tumors; aliquots kept at 4° C. or heat treated (protein, UniProt P08113 22-802, looked up)
Endoplasmin: DDEVDVDGTVEEDLGKSREGSRTDDEVVQREEEAIQLDGLNASQIRELREKSEKFAFQAEVNRMMKLIINSLYKNKEIFLRELISNASDALDKIRLISLTDENALAGNEELTVKIKCDKEKNLLHVTDTGVGMTREELVKNLGTIAKSGTSEFLNKMTEAQEDGQSTSELIGQFGVGFYSAFLVADKVIVTSKHNNDTQHIWESDSNEFSVIADPRGNTLGRGTTITLVLKEEASDYLELDTIKNLVRKYSQFINFPIYVWSSKTETVEEPLEEDEAAKEEKEESDDEAAVEEEEEEKKPKTKKVEKTVWDWELMNDIKPIWQRPSKEVEEDEYKAFYKSFSKESDDPMAYIHFTAEGEVTFKSILFVPTSAPRGLFDEYGSKKSDYIKLYVRRVFITDDFHDMMPKYLNFVKGVVDSDDLPLNVSRETLQQHKLLKVIRKKLVRKTLDMIKKIADEKYNDTFWKEFGTNIKLGVIEDHSNRTRLAKLLRFQSSHHSTDITSLDQYVERMKEKQDKIYFMAGSSRKEAESSPFVERLLKKGYEVIYLTEPVDEYCIQALPEFDGKRFQNVAKEGVKFDESEKTKESREATEKEFEPLLNWMKDKALKDKIEKAVVSQRLTESPCALVASQYGWSGNMERIMKAQAYQTGKDISTNYYASQKKTFEINPRHPLIRDMLRRIKEDEDDKTVMDLAVVLFETATLRSGYLLPDTKAYGDRIERMLRLSLNIDPEAQVEEEPEEEPEDTSEDAEDSEQDEGEEMDAGTEEEEEETEKESTEKDEL
modifications: CT-26 tumor derived, complexed with peptides
notes: Gp96-peptide complex isolated from murine CT-26 tumors; aliquots kept at 4° C. or heat treated
With B1, the “Tumor specific T-cell activation (IFN-γ release)” value is 0 pg/mL in the series with Tumor specific T-cell (49° C. at 15 min); 0 pg/mL in the series on Tumor specific T-cell (49° C. at 25 min); 3150 pg/mL with Tumor specific T-cell (49.5° C. at 30 min); 9350 pg/mL in the series on Tumor specific T-cell (60° C. at 60 min); 8100 pg/mL with Tumor specific T-cell (60° C. at 120 min). In addition, the “Specific NECA activity” value in the series “NECA ligand binding” (4° C. (untreated)) was 1.68 μg NECA bound gp96/μg gp96 and 1.96 μg NECA bound gp96/μg gp96 and 3.27 μg NECA bound gp96/μg gp96; in the series “NECA ligand binding” (49° C. at 15 min) it was 1.97 μg NECA bound gp96/μg gp96; in the series “NECA ligand binding” (49° C. at 25 min) it was 1.80 μg NECA bound gp96/μg gp96; in the series “NECA ligand binding” (49.5° C. at 30 min), 0.12 μg NECA bound gp96/μg gp96; in the series “NECA ligand binding” (60° C. at 30 min) it was 0.04 μg NECA bound gp96/μg gp96 and 0.07 μg NECA bound gp96/μg gp96; in “NECA ligand binding” (60° C. at 60 min), 0.08 μg NECA bound gp96/μg gp96. For the same molecule, the “Specific NECA activity” value in the series “NECA ligand binding” (60° C. at 120 min) is listed as 0.10 μg NECA bound gp96/μg gp96. The “% Dimer by SEC” value is 84.44% and 87% and 75.8% in series [1] (4° C. (untreated)); 74% in series [1] (49° C. at 15 min); 54% in series [1] (49° C. at 25 min); 0% in series [1] (49.5° C. at 30 min); 0% in series [1] (60° C. at 30 min); 0% in series [1] (60° C. at 60 min). Moreover, the “% Dimer by SEC” value in series [1] (60° C. at 120 min) is recorded as 0%. For the same molecule, the “dimeric form by SEC” value in series [1] (mild heat treatment) is listed as “rapidly converts to higher molecular weight aggregates”.

B2: gp96: Gp96 purified from the Meth-A murine fibrosarcoma tumors, subjected to thermal and pH perturbations (FIG. 2) (protein, UniProt P08113 22-802, looked up)
Endoplasmin: DDEVDVDGTVEEDLGKSREGSRTDDEVVQREEEAIQLDGLNASQIRELREKSEKFAFQAEVNRMMKLIINSLYKNKEIFLRELISNASDALDKIRLISLTDENALAGNEELTVKIKCDKEKNLLHVTDTGVGMTREELVKNLGTIAKSGTSEFLNKMTEAQEDGQSTSELIGQFGVGFYSAFLVADKVIVTSKHNNDTQHIWESDSNEFSVIADPRGNTLGRGTTITLVLKEEASDYLELDTIKNLVRKYSQFINFPIYVWSSKTETVEEPLEEDEAAKEEKEESDDEAAVEEEEEEKKPKTKKVEKTVWDWELMNDIKPIWQRPSKEVEEDEYKAFYKSFSKESDDPMAYIHFTAEGEVTFKSILFVPTSAPRGLFDEYGSKKSDYIKLYVRRVFITDDFHDMMPKYLNFVKGVVDSDDLPLNVSRETLQQHKLLKVIRKKLVRKTLDMIKKIADEKYNDTFWKEFGTNIKLGVIEDHSNRTRLAKLLRFQSSHHSTDITSLDQYVERMKEKQDKIYFMAGSSRKEAESSPFVERLLKKGYEVIYLTEPVDEYCIQALPEFDGKRFQNVAKEGVKFDESEKTKESREATEKEFEPLLNWMKDKALKDKIEKAVVSQRLTESPCALVASQYGWSGNMERIMKAQAYQTGKDISTNYYASQKKTFEINPRHPLIRDMLRRIKEDEDDKTVMDLAVVLFETATLRSGYLLPDTKAYGDRIERMLRLSLNIDPEAQVEEEPEEEPEDTSEDAEDSEQDEGEEMDAGTEEEEEETEKESTEKDEL
modifications: Meth-A tumor derived
Regarding B2, in series [2] (heated to 50° C. and 60° C. for 30 minutes (FIG. 2D)), the “ability to stimulate murine APC secretion of NO” value is given as “rapid drop”. In addition, in series [2] (pH 3.0 (FIG. 2H)), the “NO secretion by murine APCs” value was “markedly reduced”. The NECA binding ability entry in “NECA ligand binding” (heated to 50° C. and 60° C., at 30 minutes (FIG. 2B)) is “Neither sample of gp96 could bind NECA”; in the series “NECA ligand binding” (pH 3.0 (FIG. 2F)), “markedly reduced”. In series [1] (heated at 50° C. and 60° C., at 30 minutes (FIG. 2A)), the dimer level entry is listed as “Neither sample contained dimers”. Also, the dimer levels entry in series [1] (pH 3.0 (FIG. 2E)) was “markedly reduced”. Moreover, in series [3] (heated to 50° C. and 60° C. for 30 minutes (FIG. 2C)), the “ability to stimulate murine APC secretion of MCP-1” value was “rapid drop”. Moreover, the “MCP-1 secretion by murine APCs” value in series [3] (pH 3.0 (FIG. 2G)) is “markedly reduced”.

(Values after patent US20050221395A1, “Methods and products based on oligomerization of stress proteins” (priority 2002, published 2005).)
